{"source": "the supplement of paper PMC12764529", "note": "± gives the half width of the 95% confidence interval.", "data": [{"assay": "folding stability dG unfold (combined trypsin and chymotrypsin); higher = more stable", "in_short": "(§1)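 Designed mini-proteins with no cysteine and under 80 residues were kept only if AlphaFold2 dimer inter-PAE was above 15. In a PA-tagged cDNA display construct, they were digested with trypsin and chymotrypsin and then sequenced. K50 was inferred by Bayesian fitting of counts, and unfolding free energy was derived per protease or combined against a sequence-predicted unfolded-state K50 and a shared folded-state K50.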", "units": {"folding stability dG unfold": "kcal/mol"}, "values": [{"sequence": "SAHRIMIMFDSPEQAEEIIRKIAEEMGWKPKNIDVEVHPFPVTRPTPDGKKEEHPMYWVTIEIKLKPKKSAG [r14_773_TrROS]", "folding stability dG unfold": "2.37 ± 0.27"}, {"sequence": "SAGGSAGGSVRIPGGQPNTKVTVTVRLPDGTPVEVEATVNPSGEITLDLPDVSPDLIESIELSSAGGSAGGS [r12_477_JUSTAS]", "folding stability dG unfold": "0.82 ± 0.038"}, {"sequence": "SAGGSGEVRPLELEFTLPNGAKIKITLHVYPDGTVKVEARIEFGGEYLELRFEFEGEKVPLDFPDFGSAGGS [r16_523_TrMRF]", "folding stability dG unfold": "3.73 ± 0.2"}, {"sequence": "SAGGSNVEVERHPDGHMTFTFPDEDGKDVKITIHMHPDGMYMIRVPGNNQPIYFPPGQSIEDLLKLSAGGSA [r2_338_TrROS]", "folding stability dG unfold": "2.63 ± 0.098"}, {"sequence": "SAGGSAGGMTFTFPPGARVRIAIYNKNGELIEEREIDEPGAKITIEKDEETGEWRIVSIELLEPSAGGSAGG [r6_523_TrROS_Hall]", "folding stability dG unfold": "3.45 ± 0.18"}, {"sequence": "SGMDTVTPTTSTTQYFVEPNPEPVLSISTTTDTTTDPANPGVVTVTTTTTITDPRTGTTTTTPTTTTVPASA [r9_342_JUSTAS]", "folding stability dG unfold": "-0.146 ± 0.18"}, {"sequence": "LDPNKPENIALLEKVEEAAKAVIEELEKAGYKVEKLYVALGPNGIKIAPVTIPPEFIEELKKAGILVIPVLS [r1_134_TrMRF]", "folding stability dG unfold": "1.56 ± 0.26"}, {"sequence": "SKIRIIRPERSLEIDLPKSARIEFDPETRRIYFINPDGERLEFPLGPNAVIIPGDDEITIIDPPASPENPSA [r9_653_TrMRF]", "folding stability dG unfold": "3.19 ± 0.079"}, {"sequence": "SAGGSAGGMTIEVTFPDGTKLTITLENDGPDTLLATAEVEAPRAGGPSIPKEVAAKLAEELLASSAGGSAGG [r6_234_TrMRF]", "folding stability dG unfold": "1.36 ± 0.12"}, {"sequence": "SAGGEKIKEALEKVPGLEIVKVEKKDGKVYIHIKAKSEEQRKKAAEALKKLPGIKEVKIEVIPEEELSAGGS [r16_671_TrROS_Hall]", "folding stability dG unfold": "3.03 ± 0.21"}, {"sequence": "SAGGSAGGIMIDSPEQMEEFAKDFFQNGYHEVPIHVMDPNGNWQTFPFTIEVPPPKPEPDPGKKSAGGSAGG [r6_258_TrROS]", "folding stability dG unfold": "0.111 ± 0.29"}, {"sequence": "SAGGSAMKLTFTDSKGRTIEITVEKKYLPNGEPYLIITIKYPDTDEEIVITMPTSNIDEILEKLLNSAGGSA [r15_92_JUSTAS]", "folding stability dG unfold": "4.27 ± 0.24"}, {"sequence": "SAGGSAKKKVTITVEKKGDKYLVTIEVDGKTVVIEVPKDTTIEEIAAALPPGAKIKEIKVVKAEELSAGGSA [r15_1058_TrROS_Hall]", "folding stability dG unfold": "1.16 ± 0.067"}, {"sequence": "SAMPLDDLPAEQIRELVRSIMRKHGMPPDNVEVDVEVQRPPDGYYYITVDVEMRMNGKERKYKFTIWIPSAG [r14_703_TrROS]", "folding stability dG unfold": "3.75 ± 0.1"}, {"sequence": "SAARKIAKKLKEAFPNFPIKDIEITEYEPNPNGRPYMNISIQFPNGGKMEIQFDDPEHPEIREAIREIMSAG [r14_143_TrROS]", "folding stability dG unfold": "1.49 ± 0.19"}, {"sequence": "SAGGSAGGPVKIHVHVNPEEGYYMIEVRSGNEPRHIMIPMDKEEIKSFIENLPPGIEVEIHPMPSAGGSAGG [r6_401_TrROS]", "folding stability dG unfold": "1.4 ± 0.14"}, {"sequence": "SAGGMADEELANMSLEEVIAAVKEAGAKTVTVTFPDGSTLTIDLGDDGVVTVTLTTPPGEKETFEIPSAGGS [r8_51_TrMRF]", "folding stability dG unfold": "2.59 ± 0.11"}, {"sequence": "SAGGMLVRVTLPSGETVELPVTSLDAAARRLREELGLPAGARLRVEVYDPVTGEVTEYELVIPVPEPVSAGG [r13_145_TrMRF]", "folding stability dG unfold": "4.68 ± 0.1"}, {"sequence": "SAMEIEIEPLEKEELLKLPGAEIRLFYFPDRVLAEILLPDGTPFFVEFDPSLKPEEVLEKLLKLLEELGSAG [r14_618_TrMRF]", "folding stability dG unfold": "4.23 ± 0.13"}, {"sequence": "SAGKMKIISVKIENNTITIEIYKDGKKIKKIEIKKNKKKIIIKIEIEPGEEIKIKIEINGKTYEITIKPSAG [r5_533_TrROS_Hall]", "folding stability dG unfold": "4.11 ± 0.46"}, {"sequence": "SAGGSAAVDLSERPPALPVPLKVEVIPIPETGSSLVLVTHPDGFVLLARVNPEGEVELLSAFSLDDSAGGSA [r15_790_TrMRF]", "folding stability dG unfold": "2.51 ± 0.14"}]}, {"assay": "folding stability dG unfold from chymotrypsin proteolysis; higher = more stable", "in_short": "as §1", "units": {"folding stability dG unfold": "kcal/mol"}, "values": [{"sequence": "SAGGSAGGSMTVTYTEVGDQLVVTTPDGRRYVITLSGDVTYDPATGTVTVPPGETMTPVPVPASAGGSAGGS [r20_158_JUSTAS]", "folding stability dG unfold": "2.13 ± 0.025"}, {"sequence": "SAGGSAKVKIEFFQMPPGGNPRDMQKKAQDKGDIFIIVNKPGWMIVITADDPEDANTIAKEILEEFSAGGSA [r15_546_TrROS]", "folding stability dG unfold": "1.08 ± 0.11"}, {"sequence": "SMTIRVEGVPPGVTAEELAARLRAELEAAGYEVTSIKVTRRADGSLVVEIEVKPAPPPEPVEVVEEREEESA [r9_953_TrROS_Hall]", "folding stability dG unfold": "3.75 ± 0.16"}, {"sequence": "SAGIVIPINNPEQAEELAKEFAPEYGYEVEIERVPPGEPLEELPPNDIIVHDPDSGWFYKIKIKRPDEKSAG [r5_173_TrROS]", "folding stability dG unfold": "0.134 ± 0.43"}, {"sequence": "SAGGSAGGSAGGMVTTLEVTVSPDGVITVTTVTTDAAGTPVTTTTTTTVLGPGGPVLAVSAGGSAGGSAGGS [r10_484_JUSTAS]", "folding stability dG unfold": "2 ± 0.044"}, {"sequence": "SAGGEKIKLKVVIKVPKELKNLSKEEIEELLKKKLGPNYKITKVEIKVEKNENGEEYLVVEVEIEKESAGGS [r16_408_TrROS_Hall]", "folding stability dG unfold": "3.37 ± 0.13"}, {"sequence": "SAGGSMLIKIKLPKNNPLRDKIVEKLKKSPYVKDVKVKRLKELPNYEIFLIEVDGDPKVADEIKKLASAGGS [r16_394_TrMRF]", "folding stability dG unfold": "3.08 ± 0.045"}, {"sequence": "SAGGSAGGSGLEILEEREAVFPLHGLVVKREVVVRSPDGVPLVFVEVEAHPELLPLVERLFERSAGGSAGGS [r12_457_TrMRF]", "folding stability dG unfold": "-0.0155 ± 0.13"}, {"sequence": "SAGGSAGGSAGGISPSANVKLVAVDPERGLVVAVAKDPNSGSVSVVVFDANGNSSILPASAGGSAGGSAGGS [r10_450_TrMRF]", "folding stability dG unfold": "0.495 ± 0.029"}, {"sequence": "MPAISIEEIIKLAKEAGKPAPPTVIVFNYKFGNTTRTLPVPLSEPVSLAEVEAAIKAADPNVTEITLTFVPS [r1_135_JUSTAS]", "folding stability dG unfold": "1.36 ± 0.12"}]}]}
